According to article PMC3325613:

Tests used:
[1] = target: HIV-1 capsid protein C-terminal domain, CTD (144–231) (HIV-1) (UniProt P12493); assay: ITC
[2] = target: HIV-1 capsid protein C-terminal domain, CTD (150–231) (HIV-1) (UniProt P12493); assay: ITC

HIV-1 capsid protein C-terminal domain, CTD (144–231) (from UniProt P12493 276-363) (domain or fragment)
Kd [1]: 2500 nM

HIV-1 capsid protein C-terminal domain, CTD (150–231) (from UniProt P12493 282-363) (domain or fragment)
Kd [2]: 11 µM
